# Reference: article PMC9365158 (2022)
# B1: RBD-1-2G(NCATS-BL8125) (VHH)
# VHH: EVQLVESGGGLVQPGGSLRLSCAASGFSSIVYMGWFRQAPGKGRELVAAIDASGSTTNYPDSVEGRFTISRDNAKRMVYLQMNSLRAEDTAVYYCAIAYFTSPEYVVSQGWGQGTQVTVSS
# Legend:
# S1-hFc = S1-hFc (SARS-CoV-2); experiment: BLI
# RBD-mFc = RBD-mFc (SARS-CoV-2, UniProt P0DTC2); experiment: BLI
binder,measurement,setting,value
B1,koff,S1-hFc,0.0002 s⁻¹
same,koff,RBD-mFc,0.00024 s⁻¹
